Substitutions are numbered along the chain they refer to. Values joined by “and” are separate entries in the source; they are usually repeats but may differ in a detail not shown here. Equal entries are not always repeated. Each block holds one binder with its values, some of them ahead of it.
Columns and labels:
native MS = molecular target: the molecule itself; experiment: native MS
[1] = molecular target: Xenopus laevis histone H2B (28–126) (Xenopus laevis, UniProt P02281 28-126); experiment: crystal structure

B1: Saccharomyces cerevisiae Nap1 full-length (residues 1–417) (natural protein)
chain: MSDPIRTKPKSSMQIDNAPTPHNTPASVLNPSYLKNGNPVRAQAQEQDDKIGTINEEDILANQPLLLQSIQDRLGSLVGQDSGYVGGLPKNVKEKLLSLKTLQSELFEVEKEFQVEMFELENKFLQKYKPIWEQRSRIISGQEQPKPEQIAKGQEIVESLNETELLVDEEEKAQNDSEEEQVKGIPSFWLTALENLPIVCDTITDRDAEVLEYLQDIGLEYLTDGRPGFKLLFRFDSSANPFFTNDILCKTYFYQKELGYSGDFIYDHAEGCEISWKDNAHNVTVDLEMRKQRNKTTKQVRTIEKITPIESFFNFFDPPKIQNEDQDEELEEDLEERLALDYSIGEQLKDKLIPRAVDWFTGAALEFEFEEDEEEADEDEDEEEDDDHGLEDDDGESAEEQDDFAGRPEQAPECKQS
- stoichiometry N (native MS): 2 and 4 and 6

B2: yNap1cΔ (core 75–365 with in-frame deletion of the β5–β6 region, Δ284–308) (domain or fragment)
chain: GSLVGQDSGYVGGLPKNVKEKLLSLKTLQSELFEVEKEFQVEMFELENKFLQKYKPIWEQRSRIISGQEQPKPEQIAKGQEIVESLNETELLVDEEEKAQNDSEEEQVKGIPSFWLTALENLPIVCDTITDRDAEVLEYLQDIGLEYLTDGRPGFKLLFRFDSSANPFFTNDILCKTYFYQKELGYSGDFIYDHAEGCEISWKDNAHNVIESFFNFFDPPKIQNEDQDEELEEDLEERLALDYSIGEQLKDKLIPRAVDWFTGAAL
- binding result (native MS): binds

B3: yNap1cΔ_G225D (domain or fragment)
chain: B2 chain with G151D
- stoichiometry N (native MS): 2

- binding result [1]: binds
B4: Saccharomyces cerevisiae Nap1 core domain (residues 75–365) (domain or fragment)
chain: GSLVGQDSGYVGGLPKNVKEKLLSLKTLQSELFEVEKEFQVEMFELENKFLQKYKPIWEQRSRIISGQEQPKPEQIAKGQEIVESLNETELLVDEEEKAQNDSEEEQVKGIPSFWLTALENLPIVCDTITDRDAEVLEYLQDIGLEYLTDGRPGFKLLFRFDSSANPFFTNDILCKTYFYQKELGYSGDFIYDHAEGCEISWKDNAHNVTVDLEMRKQRNKTTKQVRTIEKITPIESFFNFFDPPKIQNEDQDEELEEDLEERLALDYSIGEQLKDKLIPRAVDWFTGAAL
- stoichiometry N (native MS): 2 and 4 and 6

— article PMC4931181 (The EMBO Journal, 2016)
